This is an account of results in patent US10746644B2, “Vitro method and apparatus for analysing the behaviour of substances in simulated physiological environment” (Hoffmann-La Roche Inc., priority 2014, dated 2020).

A short description of this series: Effect of dialysis membrane MWCO on diffusion of BSA and IgG from VH-compartment to FT-compartment. It counts as in vitro ADME, porcine. As to conditions: DM-1 50 kDa MWCO compared with DM-1 100 kDa MWCO; DM-2 100 kDa; HA gel 0.6% w/v. The method, then:
Diffusion of bovine serum albumin (BSA) and Immunoglobulin G (IgG) in the flow direction from VH-compartment to FT-compartment was investigated by varying MWCO of the dialysis membrane. The experiment was performed similarly as described in example 1 with minor modifications. Two different MWCO dialysis membranes were used as DM-1, with MWCO 50 kDa and 100 kDa, whereas the MWCO of DM-2 was kept constant at 100 kDa. VH-compartment was filled with 3.5 mL of sterile porcine VH and GM-compartment was filled with about 3 mL of sterile HA gel (0.6% w/v). FT-compartment was filled with sterile PBS.

With “FITC-BSA: FITC-labelled bovine serum albumin (66 kDa), globular macromolecule”, the “diffusion into FT compartment” value is “restrained the diffusion of both IgG and BSA significantly”.
